These results are taken from US6506379.

Assay [1] concerns the target His6-flag-FKBP in complex with rapamycin (human). Kind of assay: phage display affinity enrichment: FRAP(2015-2114) phagemids mixed with pBC control phagemids, 1 uM His6-flag-FKBP plus about 1 uM rapamycin, capture on Ni-NTA agarose, acid elution.
The target in assay [2] is His6-flag-FKBP in complex with FK506 (human). The assay can be described thus: phage display affinity enrichment: FRAP(2015-2114) phagemids mixed with pBC control phagemids, 1 uM His6-flag-FKBP plus about 1 uM FK506, capture on Ni-NTA agarose, acid elution.
The target in assay [3] is His6-flag-FKBP, no drug added (ethanol alone) (human). Kind of assay: phage display affinity enrichment: FRAP(2015-2114) phagemids mixed with pBC control phagemids, 1 uM His6-flag-FKBP with ethanol alone, capture on Ni-NTA agarose, acid elution.
Assay [4] has as its target 1FRB-p65(361-550) (human) (UniProt P42345). Kind of assay: cell-based or functional assay.

1FRB-p65(361-550) (human), sequence (P42345 other isoform, or with tags, fused parts or gaps): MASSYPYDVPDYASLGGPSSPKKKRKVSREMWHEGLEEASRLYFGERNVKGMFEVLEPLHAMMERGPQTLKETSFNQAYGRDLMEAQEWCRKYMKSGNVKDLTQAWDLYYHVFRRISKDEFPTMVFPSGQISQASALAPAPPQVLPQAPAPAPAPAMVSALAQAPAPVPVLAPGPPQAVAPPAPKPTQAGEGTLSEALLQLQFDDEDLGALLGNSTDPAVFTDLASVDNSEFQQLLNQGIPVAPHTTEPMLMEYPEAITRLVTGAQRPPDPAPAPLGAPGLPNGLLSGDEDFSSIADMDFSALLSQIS
His6-flag-FKBP, no drug added (ethanol alone) (human), sequence (chain, as listed by the source limits assumed): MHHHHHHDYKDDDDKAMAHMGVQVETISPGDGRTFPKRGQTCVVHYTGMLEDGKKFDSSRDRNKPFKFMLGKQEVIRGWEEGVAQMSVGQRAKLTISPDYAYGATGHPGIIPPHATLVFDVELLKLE
His6-flag-FKBP in complex with rapamycin (human), sequence (chain, as listed by the source limits assumed): as above
His6-flag-FKBP in complex with FK506 (human), sequence (chain, as listed by the source limits assumed): as above

Turning to “FRAP (amino acids 2015-2114) displayed on filamentous phagemid particles, from p-CANTAB-AP-FRAP(2015-2114) (from UniProt P03661 215-424)”, the fold enrichment of FRAP phage compared to the starting mixture (carb/chlor cfu ratio) in assay [1] came to 271 fold; in assay [2] it was 2.4 fold; in assay [3] it was 1.5 fold.
In assay [4], “ZFHD1-3FKBP in complex with rapamycin (from UniProt P62942 1-107)” came in with an SEAP activity of the stable clone at 100 nM rapamycin, extended assay (mock transfected cells 47 units) (arbitrary fluorescence units) of over 90000; an SEAP secretion, transiently transfected HT1080 cells (ZFHD1-site SEAP reporter); lowest rapamycin concentration with detectable SEAP of 0.5 nM; an SEAP secretion, transiently transfected HT1080 cells; rapamycin concentration at peak SEAP of 5 nM.
Regarding “ZFHD1-3FKBP, no drug (from UniProt P62942 1-107)”, the SEAP activity of the stable clone without rapamycin, extended assay (mock transfected cells 47 units) (arbitrary fluorescence units) in assay [4] stood at 54.
